The results in this text go back to patent US20040086933A1 (Chugai, published 2004).

In test [1] the target is temperature-sensitive p53 (pMSVp53Val135) (UniProt P02340). Nature of the test: cell-based or functional assay.
For the next test, the target named is T1, GST (UniProt P08515 1-218 = GST).
T1 construct: also called glutathione S-transferase
Briefly: GST pull-down with glutathione-Sepharose, anti-His Western blot (FIG. 9, Lanes 4 to 6). The procedure:
Different striamins conjugated to histidines were reacted with p53 conjugated to GST in vitro, and the reaction was immunoprecipitated with glutathione Sepharose beads, followed by Western blot analysis using anti-histidine-tag and anti-p53 antibodies (“GST-p53 pull” in the figure).
Each protein purified in step (1) (2 to 5 μg) was mixed with GST or GST-p53 (1 μg, Santa Cruz) in NP40-lysis buffer (500 μl). After two hours, glutathione-Sepharose beads (20 μl) were added to the suspension and rotated for mixing for one hour at 4° C. The beads were precipitated by centrifugation, washed three times with TBS and then boiled in SDS-sample buffer. Subsequently, SDS-PAGE was carried out for each sample, followed by detection of the respective striamins conjugated to the histidines by Western blotting using an anti-histidine-tag antibody. In addition, p53 was detected by Western blotting using anti-p53 antibody.

T1 sequence (P08515 whole entry): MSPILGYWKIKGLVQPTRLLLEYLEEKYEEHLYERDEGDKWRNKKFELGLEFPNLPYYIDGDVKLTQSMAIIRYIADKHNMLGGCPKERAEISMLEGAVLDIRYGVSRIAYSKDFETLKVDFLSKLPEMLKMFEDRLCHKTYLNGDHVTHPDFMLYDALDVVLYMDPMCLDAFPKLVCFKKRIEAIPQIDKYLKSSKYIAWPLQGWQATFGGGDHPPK

Take striamin (full-length, untagged): in test [1], the p53 activity (p53-responsive luciferase reporter PG-13luc in p53-/- MEF cells) turned out to be 4.6 fold and the β-gal positive cells (p53-responsive β-gal reporter pRGC fos-lacZ in microinjected p53-/- MEF cells) was found to be 5%.

B1: full-length striamin with a histidine tag (pQE30/full-length striamin) (other)
chain: MKGLAGEWHQDSGLDIREKAEDFSLPWLLPRLMALVMQEEGRFRSDRNHGYLREWLRIQALTACLPSPLGRVHYAQCSPKQKGRLPRGWASLPSLSVLVRALRASNAFSLGNYYCCPWRGTRWAKGQPGEWARPRASSPSAHREGVAVT
notes: also called pQE30/striamin; His-tagged striamin; not shown: N-terminal His tag encoded by the pQE30 vector (Qiagen)
Turning to B1, in the test with GST, the binding result was “no binding”.

B2: C-striamin with a histidine tag (pQE30/C-striamin) (other)
chain: QCSPKQKGRLPRGWASLPSLSVLVRALRASNAFSLGNYYCCPWRGTRWAKGQPGEWARPRASSPSAHREGVAVT
notes: not shown: N-terminal His tag encoded by the pQE30 vector (Qiagen)
As for B2, the binding result in the test with GST was “no binding”.

B3: N-striamin with a histidine tag (pQE30/N-striamin) (other)
chain: MKGLAGEWHQDSGLDIREKAEDFSLPWLLPRLMALVMQEEGRFRSDRNHGYLREWLRIQALTACLPSPLGRVHYA
notes: as for B2
As to B3, the binding result with GST is “no binding”.
